Experiment: yeast display, Sf9 membrane polyspecificity reagent, FACS + sequencing; frameworks hold sequencing errors
Outline: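 A nanobody's polyreactivity label depends on the gate it was sorted from. Yeast display cells were stained with 10% biotinylated, detergent-solubilized Sf9 membrane reagent for 1 hour at 4 °C, enriched on streptavidin microbeads and sorted by FACS. The low and high (top ~1%) gates were set on anti-HA fluorescence for expression and streptavidin fluorescence for reagent binding.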

Sequence	polyreactivity (PSR sort gate)
QVQLVESGGGLVQAGGSLRLSCAASGSIFAGNAMGWYRQAPGKERELVAAISRRGGSTYYADSVKGRFTISRDNAKNTVYLQMNSLKPEDTAVYYCNALLRYAYHAAYGYWGQGTQVTVSS	high polyreactivity
QVQLVESGGGLVQAGGSLRLSCAASGSIFAGNTMGWYRQAPGKEREFVASIRSSSGSTYYADSVKGRFTISRDNAKNTVYLQMNSLKPEDTAVYYCAARVYHYREFWVNYWGHGTQVTVSS	high polyreactivity
QVQLVESGGGLVQAGGSLRLSCAASGSIFAGNVMGWYRQAPGKESELVAAISRRGGRTYYADSVKGRFTISRDNAKNTVYLQMNSLKPEDTAVYYCAARRDPVLGKSDYWGQGTQVTVSS	high polyreactivity
QVQLVESGGGLVQAGGSLRLSCAASGSIFAHYAMGGYRQAPGKERELVAAITRGGGTYYADSVKGRFTLSRDNAKNTVYLQMNSVKPEDTAVYYCARIYYVSIYRYDYWGQGTQVTVSS	high polyreactivity
QVQLVESGGGLVQAGGSLRLSCAASGSIFAINAMGWYRQAPGKERELVAAIRRRDGNTYYADSVKGRFTISRDNAKNSVYLQMNSLKPEDTAVYYCNTYSRRTSVIAYRYNYWGQGTQVTVSS	high polyreactivity
QVQLVESGGGLVQAGGSLRLSCAASGSIFAKNAMGWYRQAPGKERELVAAISRGGNSYYADSVKGRFTISRDNAKNPVYFPMNSLTPEDTAVYYCAADYYWYVWEYPTYWYEYWGQGTQVTVSS	high polyreactivity
QVQLVESGGGLVQAGGSLRLSCAASGSIFAKYAMGLYRQAPGKERELVAGITRGGSTYYADSVKGRFTISRDNAKNTVYLQMNSLKQEDTAVYYCAAKRHTSLYVYYYWGLGTQVTVSS	high polyreactivity
QVQLVESGGGLVQAGGSLRLSCAASGSIFAKYAMGWYRQAPGKERELVAAITGSGGSTYYADSVKGRFTISRDNAKNTVYLQMNSVKPEDTAVYYCAKRRPRYTYNYWGQGTQVTVSS	high polyreactivity
QVQLVESGGGLVQAGGSLRLSCAASGSIFALYAIGWYRQAPGKEREFVAAISYNGGSTYYADSVKGRFTISRDNAKNTVYLQMNSLKPEDTAVYYCNDVYYDSGVVGYYYWGQGTQVTVSS	high polyreactivity
QVQLVESGGGLVQAGGSLRLSCAASGSIFALYAMGWYRQAPGKERELVAAISYRGGRTYYADSVKGRFTISRDNAKNTVYLQMNSLKPEDTAVYYCKAAYGTSYLYNSEFYAAFTYDYWGQGTQVTVSS	low polyreactivity
QVQLVESGGGLVQAGGSLRLSCAASGSIFAPNAMGWYRQAPGKERELVAAITLSGGSRYYADSVKGRFTISREIAMNNVYLQMNSLKPEDTAVYYCNADLLPADAPLWVTGGDYWGQGTQVTVSS	low polyreactivity
QVQLVESGGGLVQAGGSLRLSCAASGSIFAPYTMGWYRQAPGKERELVAAISSSGTSTYYADSVKGRFTISRDNAKNTVYLQMNSLKPEDTAVYYCAADWYYHYGYWGQGTQVTVSS	high polyreactivity
QVQLVESGGGLVQAGGSLRLSCAASGSIFARYAMGWYRQAPGKERELVAAINSTVSTNYADSVKGRFTISRDNAKNTVYLQMNSLKPEDTAVYYCAVDIVRGGRDSWGQGTLVTVSS	low polyreactivity
QVQLVESGGGLVQAGGSLRLSCAASGSIFARYAMGWYRQAPGKERELVAAITGRGGSTYYADSVKGRFTISRDNAKNTVYLHMNSLKPEDTAVYYCAPKDVRRTRGGSGDYWGQGTQVTVSS	high polyreactivity
QVQLVESGGGLVQAGGSLRLSCAASGSIFARYAMGWYRQAPGKERELVAAITRSGVSTYYADSVKGRFTISRDNAKNTVYLQMNSLKPEDTAVYNCNAYYPIRSTPYGYYYWGQGTQVTVSS	high polyreactivity
QVQLVESGGGLVQAGGSLRLSCAASGSIFASNAMGWYRQAPGKERELVAAITSSGRTKYADSVKGRFTISRDNAKNTVYFQMNSLKPEDTAVYYCAAVYYTYFGRYDYWGQGTQVTVSS	high polyreactivity
QVQLVESGGGLVQAGGSLRLSCAASGSIFASNAMGWYRQAPGTERELVAAIDTSGGSTYYADSVKGRFTISRDNAKNTVYLQMNSLKPEDTAVYYCNTDWRDEYYPRYRASKFDYWGQGTQVTVSS	low polyreactivity
QVQLVESGGGLVQAGGSLRLSCAASGSIFASYAMGRYRQAPGKERELVAAISRSGGSTYYADSVKGRFTISRDNAKNTVYLQMNSLKPEDTAVYYCATGKIREDDYWGQGTQVTVSS	high polyreactivity
QVQLVESGGGLVQAGGSLRLSCAASGSIFASYAMGWYRQAPGKERELVAAISWNGGSTYYADSVKGRFTISRDNAKNTVYFQMNSLKPEDTAVYYCAAVNRKSQLYGYWGQGTQVTVSS	high polyreactivity
QVQLVESGGGLVQAGGSLRLSCAASGSIFASYAMGWYRQAPGKERELVAAITYSGSRTYYADSVKGRFTISRDTAKNTVYLQMNSLKPEDTAVYYCNADYYWYPYEDDYWGQGTQETVSS	low polyreactivity
QVQLVESGGGLVQAGGSLRLSCAASGSIFASYVMGWYRQAPGKERELVAAISSSGASTYYADSVKGRFTISRDNAKNTVSLQMNSLKPEDTAVSYCATPYYRSYLGDYWGQGTQVTVSS	high polyreactivity
QVQLVESGGGLVQAGGSLRLSCAASGSIFATNAMGWYRQAPGKERELVASISSGGGSTYYADSVKGRFTISRDNAKNTVYLQMNSLKPEDTAVYYCARRIGHGSRPYWLETWRYPYDYWGQGTQVTVSS	low polyreactivity

Sequence	polyreactivity (PSR sort gate)
QVQLVESGGGLVQAGGSLRLSCAASGSIFATNSMGWYRQAPGKERELVAAISRSGASTYYADSVKGRFTISRDNAKNTVYLQMNSLKPEDTAVYYCNKVLYRDAYHSYCFDYWGQGTQVTVSS	high polyreactivity
QVQLVESGGGLVQAGGSLRLSCAASGSIFATYAMGWYRQAPGKERELVAAISSSGSRTYYADSVKGRFTISRDNAKNTVYLQMNSLKPEDTAVYYCAKAYLSPYQYDYWGQGTQVTVSS	high polyreactivity
QVQLVESGGGLVQAGGSLRLSCAASGSIFATYAMGWYRQAPGKERELVAAITSSDGSTNYADSVKGRFTISRDNAKNTVYLQMNSLKPEDTAVYYCATDAPDRTDSDSGFDAGYDYWGQGTQVTLSS	low polyreactivity
QVQLVESGGGLVQAGGSLRLSCAASGSIFAVYAMGWYRQAPGKERELVAAISVSGGRTYYADSVKGRFTISRDNAKNTVYLQMNSLKPEDTAVYYCAARSLSYYRSRAAQYGWGYYYWGQGTQVTVSS	high polyreactivity
QVQLVESGGGLVQAGGSLRLSCAASGSIFAVYAMGWYRQAPGKERELVAASSTDYADSVKGRFTISRDYAKNTVYLQMNSLKPEDTAVYYCANVGFGIPGGFYYWGQGTKVTVSS	low polyreactivity
QVQLVESGGGLVQAGGSLRLSCAASGSIFAVYAMGWYRQAPGKERELVATITGIDTGTYYADSVKGRFTISRDNAKNTVYLQMNSLKPEDTAVYYCAAVWRYRHLRFYYWGQGTQVTVSS	high polyreactivity
QVQLVESGGGLVQAGGSLRLSCAASGSIFAVYTMGWYRQAPGKEREVVAAITKSGGRTYYADSVKGRFTISRDNAKNTVYLQMNSLKPEDTAVYYCARRRTIPYTLVDYDSWGQGTQVTVSS	low polyreactivity
QVQLVESGGGLVQAGGSLRLSCAASGSIFAWYAMGWYRPAPGKEWELVAVITRGGSTNYADSLKGRFTISRDNAKNTVYLQMNSLKPEDTAVKYCAAGSYYSWYPFDYWGQGTQVTVSS	low polyreactivity
QVQLVESGGGLVQAGGSLRLSCAASGSIFAWYAMGWYRQAPGKERELVAAISYRGGRTYYADSVKGRFTISRDNAKNTVYLQMNSLKPEDTAVYYCATDANRGYPSYDYWGQGTQVTVSS	high polyreactivity
QVQLVESGGGLVQAGGSLRLSCAASGSIFAYAMGWYRKAPGKEREFVAAISGGSTYYADSVKGRFTISRDNAKNTVYLQMNSLKPEDTAVYYCAADLDDERYYWGQGTQVTVSS	low polyreactivity
QVQLVESGGGLVQAGGSLRLSCAASGSIFAYKAKGWYRQAPGKEREFVAVITRSDDSTYAYSVKGRFTISRDNAKNPFYLQMNSLKAEDTAVYYCARRWSYLRPSLEYDSWGQGTQVTVSS	low polyreactivity
QVQLVESGGGLVQAGGSLRLSCAASGSIFAYNAKGWYRPAPGKEREFVAVITRSDDSTYADSVKWRFTISRDNAKNTVYLQMNSLKPEDTSVYYCAAQPFVIDCGYRGDYWGQATQVTVSS	low polyreactivity
QVQLVESGGGLVQAGGSLRLSCAASGSIFAYNAMGWYRQAPGKDREFVAAISQSGGRTYYAHSVKGRFTISRDNAKNTVYLQMNILKPEDTAVYYCATDGIRLTRHRDYDYWGQGTQVTVSS	low polyreactivity
QVQLVESGGGLVQAGGSLRLSCAASGSIFAYNAMGWYRQAPGKERELVATINWIGGRTYYADSVKGRFTISRDNAKNTVYLQMNSLKPEDTAVYYCAKERWYLGVSNGHVLVDYDHWGQGTQVTVSS	low polyreactivity
QVQLVESGGGLVQAGGSLRLSCAASGSIFAYYAMGWYRQAPGKEREIVAAISKRGGRTYYADSVKGRFTISRDNAKNTVYLQMNSLKPEDTAVYYCATVGVRTNLNRYGYWGQGTQVTVSS	high polyreactivity
QVQLVESGGGLVQAGGSLRLSCAASGSIFAYYAMGWYRQAPGKERELVAAIDSRGGSTYYADSVKGRFTISRDNAKNTVYLQMNSLKPEDTAVYYCAARLRYPRRGQGDNYWGQGTQVTVSS	low polyreactivity
QVQLVESGGGLVQAGGSLRLSCAASGSIFAYYAMGWYRQAPGKERELVAAISSGGGTYYADSVKGRFTISRDNAKNTVYLQMNSLKPEDTAVYYCARRYRAHYQYLYDYWGQGTQVSVSS	low polyreactivity
QVQLVESGGGLVQAGGSLRLSCAASGSIFAYYAMGWYRQAPGKERELVASISSVGTTKYADSVKGRFTISRDNAKNTVYLQMNSLKPEDTAVYYWATDGYSPAAFDYWGQGTQVTVSS	low polyreactivity
QVQLVESGGGLVQAGGSLRLSCAASGSIFAYYAMGWYRQAPGKESELVADITSSGGITYYADSVKGRFTISRDNAKNTVYLQMISLKPEDTAVYYCNADSWAIGGGSYPYDYWGHGTQVTVSS	low polyreactivity
QVQLVESGGGLVQAGGSLRLSCAASGSIFAYYTMGWYRQAAGNERELVAVINASGGGTYYADSVKGRFTISRDNAKNTVYLQMNSLKPEDTAVYYCAATYSPFDFYYWGQGTQVTVSS	low polyreactivity
QVQLVESGGGLVQAGGSLRLSCAASGSIFAYYTMGWYRQAPGKERELVATISSGDITNYADSVKGRFTISRDNAKNTVYLQMNSLKPEDTAVYYCAAAELTSYYRTFIHQDYDYWGQGTQVTVSS	low polyreactivity
